From patent publication US20240058447A1 (INSTIL BIO UK, published 2024)
Values belong to the molecule of their own block, whether it stands above or below them.

Key:
[1] = target: CD3 of the TCR/CD3 complex on T cells (human) (UniProt P07766); experiment: cell-based or functional assay
[2] = target: membrane-bound FRα on target cells (UniProt P15328); experiment: cell-based or functional assay
[3] = target: T1, human histidine-tagged FRα (human, UniProt P15328 25-234); experiment: surface plasmon resonance (printed 'Surface plasma resonance'); orientation not stated; FIG. 54 names human histidine-tagged FRα
T1 construct: also called folate receptor α; FOLR1; not shown: histidine tag
T1 sequence (P15328 25-234 limits assumed): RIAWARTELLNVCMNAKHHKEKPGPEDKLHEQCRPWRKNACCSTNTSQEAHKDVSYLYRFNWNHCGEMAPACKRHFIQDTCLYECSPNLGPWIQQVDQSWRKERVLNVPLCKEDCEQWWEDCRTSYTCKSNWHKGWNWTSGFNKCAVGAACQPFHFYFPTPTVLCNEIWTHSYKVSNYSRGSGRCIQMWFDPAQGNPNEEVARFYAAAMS

membrane-bound FRα on target cells, sequence (P15328 25-234 limits assumed): as above
CD3 of the TCR/CD3 complex on T cells (human), sequence (P07766 23-207, one chain of several): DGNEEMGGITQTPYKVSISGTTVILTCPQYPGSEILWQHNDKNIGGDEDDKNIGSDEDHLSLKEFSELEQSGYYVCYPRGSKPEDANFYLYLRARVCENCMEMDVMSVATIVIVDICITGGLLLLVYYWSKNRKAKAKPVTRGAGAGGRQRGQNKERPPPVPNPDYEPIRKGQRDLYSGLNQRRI

Molecule: membrane-anchored OKT3 on target cells (scFv)
cytotoxicity against Ba/F3.OKT3 at E:T 1:5 after 5 days, CoStAR transduced T cells [1]: 82%
cytotoxicity against Ba/F3.OKT3 at E:T 1:5 after 5 days, non-transduced T cells [1]: 74%

IFNγ production of lung TIL against Ba/F3.OKT3.FRα, CoStAR-Td versus non-Td [2]: 4 fold
IFNγ production of lung TIL against autologous tumor digest, E:T 1:1, CoStAR-Td versus non-Td [2]: 6.4 fold
IFNγ production of ovarian TIL against Ba/F3.OKT3.FRα, CoStAR-Td versus non-Td [2]: 4.2 fold
IFNγ production of ovarian TIL against autologous tumor digest, E:T 1:1, CoStAR-Td versus non-Td [2]: 4.3 fold
IFNγ production of renal TIL against Ba/F3.OKT3.FRα, CoStAR-Td versus non-Td [2]: 3.1 fold
IFNγ production of renal TIL against autologous tumor digest, E:T 1:1, CoStAR-Td versus non-Td [2]: 2.4 fold
IL-2 production of lung TIL against Ba/F3.OKT3.FRα, CoStAR-Td versus non-Td [2]: 18.3 fold
IL-2 production of ovarian TIL against Ba/F3.OKT3.FRα, CoStAR-Td versus non-Td [2]: 19.9 fold
IL-2 production of renal TIL against Ba/F3.OKT3.FRα, CoStAR-Td versus non-Td [2]: 15 fold
fold expansion after a single stimulation with Ba/F3.OKT3.FRα, no exogenous IL-2, day 7 [2]: 6.7 fold
fold expansion after repeated stimulation with Ba/F3.OKT3.FRα (days 0, 7, 14, 21), no exogenous IL-2, day 35 [2]: 829 fold
fold expansion of T cells cocultured with Ba/F3.OKT3.FRα, E:T 8:1, 200 IU/mL IL-2, day 35 [2]: 198 fold
Molecule: anti-FRα CoStAR (MOV19 scFv - CD28 - CD40 costimulatory antigen receptor) on T cells or TILs
xCELLigence cytotoxicity against H508.Luc.Puro.FRα, AUC of normalized cell index over 48 h, E:T 10:1, donor 37636 TCR.CoStAR-Td T cells [2]: 91.2 AUC

Kd [3]: ~0.46 nM
B1: MOV19 monoclonal antibody (antibody, V domains shown)
VH: QVQLQQSGAELVKPGASVKISCKASGYSFTGYFMNWVKQSHGKSLEWIGRIHPYDGDTFYNQNFKDKATLTVDKSSNTAHMELLSLTSEDFAVYYCTRYDGSRAMDYWGQGTTVTVSS
VL: DIELTQSPASLAVSLGQRAIISCKASQSVSFAGTSLMHWYHQKPGQQPKLLIYRASNLEAGVPTRFSGSGSKTDFTLNIHPVEEEDAATYYCQQSREYPYTFGGGTKLEIK
notes: also called MOV19 antibody; MOV19 anti-FRα antibody
